In US20100254901, “Compositions comprising nucleic acid aptamers” (published 2010) one finds Kd data, which are given here for eight molecules.

Data set [1] has as its system Bovine gamma globulin (BGG) (Bos taurus). Description: FP. The following applies: control protein.
The target of data set [2] is T1, Carcinoembryonic antigen (CEA) (Homo sapiens, UniProt P06731 P06731:35-685). Description: FP; physiological binding buffer. Conditions: tags: Calbiochem; label: 5'-fluorescein. The text has this: (§1) A fluorescent polarization (FP) assay was used to test the affinity of several oligonucleotide sequences to CEA (Table 4). The initial studies focused on 5 oligonucleotides. Clone 22 and clone 26 contained the sequences with the highest identity to the G-rich motif. The aptamers were synthesized with fluorescein at their 5′ ends and binding was analysis using the Beacon 2000 instrument equipped with a 530 nm emission filter and a 490 nm excitation filter from Pan Vera Corp. (Madison Wis.).
(§2) In the FP assay, fluorescently labelled aptamers are added to the protein. Binding is detected by an increase in fluorescent polarization cause by the decrease in rotation of the protein bound fluorescein (FIG. 4A). The Kd is calculated by determining the CEA concentration at the half maximal mP value as determined from plots of averaged stable mP data as shown in FIGS. 4B and C. […] Unfortunately, others members of the CEA superfamily are not available commercially.

For data set [3], the target named is Bovine serum albumin (BSA) (Bos taurus, UniProt P02769 P02769:25-607). Description: FP; control protein. The following applies: label: 5'-fluorescein.
From the text: as §1, §2

In data set [4] the target is T1, Carcinoembryonic antigen (CEA). Description: FP; physiological binding buffer; table header prints nM-1, text nM. Conditions: tags: Calbiochem; label: 5'-fluorescein.
From the text: as §1, §2
FIG. 4. Binding of clone26bases 1-50 to CEA monitored by FP in a physiological binding buffer using 4 nM aptamer. (A) Shown is the mP as a function a reading number (sample #). CEA (8 nM) was added after the tenth reading. (B) Shown is the average mP vs aptamer concentration. (C) Shown is the average mP vs CEA concentration within the linear range.

Data set [5] shares this target. Description: FP; primer region absent; physiological binding buffer. The following applies: tags: Calbiochem; label: 5'-fluorescein.
From the text: as §1, §2

T1 sequence (P06731 35-685, one chain of several): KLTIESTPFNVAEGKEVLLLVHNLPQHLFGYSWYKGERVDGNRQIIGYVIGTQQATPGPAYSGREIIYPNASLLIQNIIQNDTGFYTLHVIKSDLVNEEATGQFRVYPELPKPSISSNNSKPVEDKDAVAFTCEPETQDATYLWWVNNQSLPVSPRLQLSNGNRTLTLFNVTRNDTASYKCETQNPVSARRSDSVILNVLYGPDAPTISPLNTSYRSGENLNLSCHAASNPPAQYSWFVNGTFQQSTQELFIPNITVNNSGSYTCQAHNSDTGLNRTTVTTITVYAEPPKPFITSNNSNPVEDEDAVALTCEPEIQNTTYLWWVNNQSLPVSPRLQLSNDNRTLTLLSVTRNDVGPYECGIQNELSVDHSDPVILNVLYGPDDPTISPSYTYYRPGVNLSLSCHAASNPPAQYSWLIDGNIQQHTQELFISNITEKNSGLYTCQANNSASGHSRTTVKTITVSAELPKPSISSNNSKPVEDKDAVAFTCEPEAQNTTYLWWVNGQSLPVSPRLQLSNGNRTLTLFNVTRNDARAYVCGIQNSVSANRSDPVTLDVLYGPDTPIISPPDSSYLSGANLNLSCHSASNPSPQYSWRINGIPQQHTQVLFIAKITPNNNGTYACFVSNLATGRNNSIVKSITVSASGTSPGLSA
Bovine serum albumin (BSA), sequence (P02769 25-607, one chain of several): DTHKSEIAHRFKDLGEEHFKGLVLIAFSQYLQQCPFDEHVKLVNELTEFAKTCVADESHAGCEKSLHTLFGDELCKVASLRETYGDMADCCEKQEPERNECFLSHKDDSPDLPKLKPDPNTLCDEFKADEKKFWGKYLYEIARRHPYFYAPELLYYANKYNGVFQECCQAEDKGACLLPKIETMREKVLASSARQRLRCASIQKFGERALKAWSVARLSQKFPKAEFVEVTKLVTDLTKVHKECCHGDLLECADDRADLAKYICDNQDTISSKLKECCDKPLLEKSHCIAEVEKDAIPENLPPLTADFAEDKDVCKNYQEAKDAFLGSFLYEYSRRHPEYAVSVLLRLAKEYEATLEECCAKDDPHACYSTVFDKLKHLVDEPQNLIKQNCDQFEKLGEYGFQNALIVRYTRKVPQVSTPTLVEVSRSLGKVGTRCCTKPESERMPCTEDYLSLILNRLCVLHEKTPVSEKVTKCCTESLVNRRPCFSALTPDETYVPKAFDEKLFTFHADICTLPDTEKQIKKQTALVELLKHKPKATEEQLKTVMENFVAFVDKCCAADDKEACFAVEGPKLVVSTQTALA

With “ATACCAGCTTATTCAATTGGGGGAGGGGGCGACGCGATACCC [clone22bases1-42]”, in data set [1], the Kd (usually the concentration at which binding is half-saturated) was 500 nM.

“GGGGGAGGGGGCGACGCGATACCC [clone22bases19-42]” came in with an equilibrium dissociation constant (Kd) in data set [1] of 250 nM.

In data set [1], ATACCAGCTTATTCAATT [5' primer] had a dissociation constant (Kd) of 400 nM.

“ATACCAGCTTATTCAATTGGGGTAGGGGGCGAAGCGATACCCTAATCAGC [clone26bases1-50]” yielded a Kd in data set [1] of 100 nM.

For the molecule ATACCAGCTTATTCAATT (ssDNA) [5' primer], the equilibrium dissociation constant (Kd) is 5 nM in data set [2] and 300 nM in data set [3].

Regarding ATACCAGCTTATTCAATTGGGGTAGGGGGCGAAGCGATACCCTAATCAGC (ssDNA) [clone26bases1-50], the Kd in data set [3] was found to be 100 nM; in data set [4], 4 nM.

Take GGGGGAGGGGGCGACGCGATACCC (ssDNA) [clone22bases19-42]: the Kd in data set [5] was determined as 20 nM; in data set [3], 400 nM.

In the case of ATACCAGCTTATTCAATTGGGGGAGGGGGCGACGCGATACCC (ssDNA) [clone22bases1-42], the Kd in data set [2] came out at 5 nM; in data set [3], 200 nM.
